B2: hKIS (human KIS), clone C21, fused to the GAL4 activating domain (enzyme, not shown: large carriers)
chain: MAGSGCAWGAEPPRFLEAFGRLWQVQSRLGSGSSASVYRVRCCGNPGSPPGALKQFLPPGTTGAAASAAEYGFRKERAALEQLQGHRNIVTLYGVFTIHFSPNVPSRCLLLELLDVSVSELLLYSSHQGCSMWMIQHCARDVLEALAFLHHEGYVHADLKPRNILWSAENECFKLIDFGLSFKEGNQDVKYIQTDGYRAPEAELQNCLAQAGLQSDTECTSAVDLWSLGIILLEMFSGMKLKHTVRSQEWKANSSAIIDHIFASKAVVNAAIPAYHLRDLIKSMLHDDPSRRIPAEMALCSPFFSIPFAPHIEDLVMLPTPVLRLLNVLDDDYLGNEEEYEDVVEDVKEECQKYGPVVSLLVPKENPGRGQVFVEYANAGDSKAAQKLLTGRMFDGKFVVATFYPLSAYKRGYLYQTLL
notes: Prey of the yeast two-hybrid assay; also called the clones

Tests used:
[1] = target: T1, p57^Kip2 as used in the in vitro phosphorylation assay
T1 sequence (P49918 1-316, species assumed, looked up): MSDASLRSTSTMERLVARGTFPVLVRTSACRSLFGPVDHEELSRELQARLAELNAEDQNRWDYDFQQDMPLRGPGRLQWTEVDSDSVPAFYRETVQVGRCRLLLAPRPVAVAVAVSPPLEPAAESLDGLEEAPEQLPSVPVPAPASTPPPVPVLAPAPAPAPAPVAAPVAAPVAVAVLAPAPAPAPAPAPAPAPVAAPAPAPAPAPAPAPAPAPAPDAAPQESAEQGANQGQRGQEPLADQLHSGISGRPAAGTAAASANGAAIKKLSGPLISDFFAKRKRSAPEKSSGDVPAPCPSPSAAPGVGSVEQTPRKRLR

[2] = target: p21^Cip1 as used in the in vitro phosphorylation assay
[3] = target: p16^Ink4 as used in the in vitro phosphorylation assay
[4] = target: T2, NH2-terminal GST-p27^Kip1
T2 chain: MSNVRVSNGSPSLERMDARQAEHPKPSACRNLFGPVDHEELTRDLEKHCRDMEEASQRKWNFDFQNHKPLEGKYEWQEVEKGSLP

[5] = target: NH2-terminal GST-p27^Kip1 with serine 10 to alanine (pGSTp27^Kip1 NH2S1OM)
[6] = target: purified recombinant p27^Kip1 (bacterial-produced)
[7] = target: T3, pVA3 (murine p53/GAL4 DNA binding domain) (murine, UniProt P04386 1-147; P02340 72-390); test: yeast two-hybrid, beta-galactosidase staining
T3 construct: Bought control plasmid (Clontech)

[8] = target: B2; test: yeast two-hybrid, beta-galactosidase staining

B1: in vitro translated hKIS from pcDNA3.1/His ([35S]-methionine-labeled or unlabeled, epitope-tagged) (protein)
chain: MAGSGCAWGAEPPRFLEAFGRLWQVQSRLGSGSSASVYRVRCCGNPGSPPGALKQFLPPGTTGAAASAAEYGFRKERAALEQLQGHRNIVTLYGVFTIHFSPNVPSRCLLLELLDVSVSELLLYSSHQGCSMWMIQHCARDVLEALAFLHHEGYVHADLKPRNILWSAENECFKLIDFGLSFKEGNQDVKYIQTDGYRAPEAELQNCLAQAGLQSDTECTSAVDLWSLGIILLEMFSGMKLKHTVRSQEWKANSSAIIDHIFASKAVVNAAIPAYHLRDLIKSMLHDDPSRRIPAEMALCSPFFSIPFAPHIEDLVMLPTPVLRLLNVLDDDYLGNEEEYEDVVEDVKEECQKYGPVVSLLVPKENPGRGQVFVEYANAGDSKAAQKLLTGRMFDGKFVVATFYPLSAYKRGYLYQTLL
- in vitro phosphorylation in the presence of ^32P-ATP [1]: hKIS did not phosphorylate p57^Kip2, p21^Cip1 or p16^Ink4
- in vitro phosphorylation in the presence of ^32P-ATP [2]: hKIS did not phosphorylate p57^Kip2, p21^Cip1 or p16^Ink4
- in vitro phosphorylation in the presence of ^32P-ATP [3]: hKIS did not phosphorylate p57^Kip2, p21^Cip1 or p16^Ink4
- in vitro phosphorylation assay [4]: phosphorylation of GST-p27^Kip1 was detected in the NH2.terminal region of the protein
- in vitro phosphorylation assay [5]: mutation of serine 10 to alanine (S10A) abolished phosphorylation of GST-p27^Kip1
- in vitro phosphorylation in the presence of ^32P-ATP [6]: hKIS readily phosphorylated bacterial-produced p27^Kip1

Binder: B2
- binding result [7]: no binding

B3: pLAM5′ (human laminC/GAL4 DNA binding domain) (other, UniProt P04386 1-147, looked up)
chain: MKLLSSIEQACDICRLKKLKCSKEKPKCAKCLKNNWECRYSPKTKRSPLTRAHLTEVESRLERLEQLFLLIFPREDLDMILKMDSLQDIKALLTGLFVQDNVNKDAVTDRLASVETDMPLTLRQHRISATSSSEESSNKGQRQLTVSSEEVVSREVSGIKAAYEAELGDARKTLDSVAKERARLQLELSKVREEFKELKARNTKKEGDLIAAQARLKDLEALLNSKEAALSTALSEKRTLEGELHDLRGQVAKLEAALGEAKKQLQDEMLRRVDAENRLQTMKEELDFQKNIYSEELRETKRRHETRLVEID
notes: Bought control plasmid (Clontech)
- binding result [8]: no binding

Source: patent US6894154 (REGENTS OF THE UNIVERSITY OF MICHIGAN, dated 2005)
